From WO2021160116A1 (dated 2021) come the findings set out here.

The test has as its target T1, human FcRn-β2M complex (human FcRn extracellular region with His-tagged human β2M) (human, UniProt P55899 24-297; P61769 21-119, randomly biotinylated in the ELISA (biotin-hFcRn)).
T1 construct: Purified by Ni-Sepharose and Superdex200; Used biotinylated in the ELISA and as analyte in Biacore; also called FcRn antigen; hFcRn; not shown: His tag
In words: ELISA, biotin-hFcRn on NeutrAvidin plate, pH 6.0.

T1 sequence (P55899 24-297 limits assumed, chain 1 of 2): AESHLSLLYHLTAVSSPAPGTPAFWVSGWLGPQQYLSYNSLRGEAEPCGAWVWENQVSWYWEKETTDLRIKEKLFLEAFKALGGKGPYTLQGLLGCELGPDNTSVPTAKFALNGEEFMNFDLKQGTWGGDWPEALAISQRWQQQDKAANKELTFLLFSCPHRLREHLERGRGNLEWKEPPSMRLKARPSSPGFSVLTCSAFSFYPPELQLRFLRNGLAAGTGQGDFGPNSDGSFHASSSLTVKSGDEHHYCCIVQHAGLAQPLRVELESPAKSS
T1 sequence (P61769 21-119 limits assumed, chain 2 of 2): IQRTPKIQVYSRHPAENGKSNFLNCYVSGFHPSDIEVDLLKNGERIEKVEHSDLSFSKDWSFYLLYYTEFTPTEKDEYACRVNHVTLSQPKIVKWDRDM

B1: Argx-113 (other)
chain: DKTHTCPPCPAPELLGGPSVFLFPPKPKDTLYITREPEVTCVVVDVSHEDPEVKFNWYVDGVEVHNAKTKPREEQYNSTYRVVSVLTVLHQDWLNGKEYKCKVSNKALPAPIEKTISKAKGQPREPQVYTLPPSRDELTKNQVSLTCLVKGFYPSDIAVEWESNGQPENNYKTTPPVLDSDGSFFLYSKLTVDKSRWQQGNVFSCSVMHEALKFHYTQKSLSLSPGK
B1 displayed a concentration for a half-maximal effect (EC50) of 0.9 µg/mL.
